Measurements: patent publication US20250388673A1 (HIFIBIO, published 2025)

T1: human BTLA (human, UniProt Q7Z6A9 31-289)
T1 construct: also called hBTLA; HEK293.hBTLA
T1 sequence: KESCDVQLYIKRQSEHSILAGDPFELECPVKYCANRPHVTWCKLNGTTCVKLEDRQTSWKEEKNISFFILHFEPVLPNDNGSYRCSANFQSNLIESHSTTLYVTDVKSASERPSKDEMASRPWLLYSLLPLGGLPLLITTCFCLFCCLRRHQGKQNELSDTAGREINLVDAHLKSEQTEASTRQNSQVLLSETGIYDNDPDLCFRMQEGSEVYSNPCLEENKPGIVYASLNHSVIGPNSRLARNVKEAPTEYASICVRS

B1: HFB6-5hz16-hG1 (antibody, human IgG1, V domains shown)
VH: EVQLVESGGGLVQPGGSLKLSCAASGVNIKDTYMYWVRQASGKGLEWIGRIDPANGYTRYAASFKGRATISADDSKNTAYLQLNSLKTEDTAVYYCAVYDGYYESFDVWGQGTLVTVSS
VL: EIVLTQSPGTLSVSPGERATISCRSSQSLLDSDGKTYLNWLQQKPGQAPRRLIYLVSKRDTGVPDRFSGSGSGTDFTLTISRVEPEDFAVYYCWQGTLFPRTFGQGTKLEIK
notes: Humanized variant of HFB6-5, human IgG1 (hG1)
B2: HFB6-5hz18-hG1 (antibody, human IgG1, V domains shown)
VH: EVQLVQSGAEVKKPGESLKISCKGSGVNIKDTYMYWVRQMPGKGLEWIGRIDPANGYTRYSPSFQGQVTISADKSISTAYLQLSSLKASDTAMYYCAVYDGYYESFDVWGQGTLVTVSS
VL: EIVLTQSPGTLSVSPGERATISCRSSQSLLDSDGKTYLNWLQQKPGQAPRRLIYLVSKRDTGVPDRFSGSGSGTDFTLTISRVEPEDFAVYYCWQGTLFPRTFGQGTKLEIK
notes: as for B1
B3: HFB6-5hz17-hG1 (antibody, human IgG1, V domains shown)
VH: QVQLQESGPGLVKPSGTLSLTCAASGVNIKDTYMYWVRQPPGKGLEWIGRIDPANGYTRYNPSFKSRATISADKSKNQASLKLSSVTAADTAVYYCAVYDGYYESFDVWGQGTLVTVSS
VL: EIVLTQSPGTLSVSPGERATISCRSSQSLLDSDGKTYLNWLQQKPGQAPRRLIYLVSKRDTGVPDRFSGSGSGTDFTLTISRVEPEDFAVYYCWQGTLFPRTFGQGTKLEIK
notes: as for B1
B4: HFB6-5hz21-hG1 (antibody, human IgG1, V domains shown)
VH: EVQLVESGGGLVQPGRSLRLSCTASGVNIKDTYMYWVRQAPGKGLEWVGRIDPANGYTRYTASFKGRATISADGSKSIAYLQMNSLKTEDTAVYYCAVYDGYYESFDVWGQGTLVTVSS
VL: DIVMTQSPDSLAVSLGERATINCKSSQSLLDSDGKTYLNWLQQKPGQSPKRLIYLVSKLDSGVPDRFSGSGSGTDFTLTISSVQAEDLAVYYCWQGTLFPRTFGQGTKLEIK
notes: as for B1
B5: HFB6-4hz1-hG1 (antibody, V domains shown)
VH: QVQLVQSGAEVKKPGSSVKVSCKTSGFNIKDTYIHWVRQAPGQGLEWIGRNDPANGNTKYAQKFQGRATITADESTSTAYMELSSLRSEDTAVYYCASYEGYYERFGYWGQGTLVTVSS
VL: DIQMTQSPSSLSASVGDRVTITCRSSQSLLDRDGKSYLNWLQQKPGKAPKRLIYLVSKLDSGVPSRFSGSGSGTDFTLTISSLQPEDFATYYCWQDTHFPYTFGQGTKLEIK
notes: Humanized variant of HFB6-4, human IgG1 (hG1); Only VH and VL are tied to the name
B6: HFB6-4hz2-hG1 (antibody, human IgG1, V domains shown)
VH: QVQLVQSGAEVKKPGASVKVSCKTSGFNIKDTYIHWVRQAPGQGLEWIGRNDPANGNTKYAQKFQGRVTMTADTSTSTVYMELSSLRSEDTAVYYCASYEGYYERFGYWGQGTLVTVSS
VL: DIQMTQSPSSLSASVGDRVTITCRSSQSLLDRDGKSYLNWLQQKPGKAPKRLIYLVSKLDSGVPSRFSGSGSGTDFTLTISSLQPEDFATYYCWQDTHFPYTFGQGTKLEIK
notes: Humanized variant of HFB6-4, human IgG1 (hG1)
B7: HFB6-5hz19-hG1 (antibody, human IgG1, V domains shown)
VH: QVQLVQSGAEVKKPGSSVKVSCKASGVNIKDTYMYWVRQAPGQGLEWIGRIDPANGYARYAQKFQGRATITADESTSTAYMELSSLRSEDTAVYYCAVYDGYYESFDVWGQGTLVTVSS
VL: DIVMTQSPDSLAVSLGERATINCKSSQSLLDSDGKTYLNWLQQKPGQSPKRLIYLVSKLDSGVPDRFSGSGSGTDFTLTISSVQAEDLAVYYCWQGTLFPRTFGQGTKLEIK
notes: as for B1
B8: HFB6-5hz20-hG1 (antibody, human IgG1, V domains shown)
VH: QVQLVQSGAEVKKPGASVKVSCKASGVNIKDTYMYWVRQAPGQGLEWIGRIDPANGYTRYAQKFQGRATITADTSTSTVYMELSSLRSEDTAVYYCAVYDGYYESFDVWGQGTLVTVSS
VL: DIVMTQSPDSLAVSLGERATINCKSSQSLLDSDGKTYLNWLQQKPGQSPKRLIYLVSKLDSGVPDRFSGSGSGTDFTLTISSVQAEDLAVYYCWQGTLFPRTFGQGTKLEIK
notes: as for B1

Target: T1, human BTLA
Test: flow cytometry, HEK293 cells overexpressing human BTLA
Method: HEK293 cells overexpressing human BTLA and Expi293 cells overexpressing cynomolus BTLA were incubated with different concentrations of humanized anti-BTLA antibodies. Anti-BTLA antibody binding to target cells were quantified with an AF647-conjugated anti-human IgG Fc secondary antibody by flow cytometry.

Binding result, binds:
B1, B2, B3, B4, B5, B6, B7, B8
